# Reference: article PMC8298264, “Function of cofactor Akirin2 in the regulation of gene expression in model human neutrophil-like HL60 cells” (Bioscience Reports, 2021)
# B1: sp¦Q13895¦BYST_HUMAN (protein, UniProt Q13895 1-437, looked up)
# Bystin: MPKFKAARGVGGQEKHAPLADQILAGNAVRAGVREKRRGRGTGEAEEEYVGPRLSRRILQQARQQQEELEAEHGTGDKPAAPRERTTRLGPRMPQDGSDDEDEEWPTLEKAATMTAAGHHAEVVVDPEDERAIEMFMNKNPPARRTLADIIMEKLTEKQTEVETVMSEVSGFPMPQLDPRVLEVYRGVREVLSKYRSGKLPKAFKIIPALSNWEQILYVTEPEAWTAAAMYQATRIFASNLKERMAQRFYNLVLLPRVRDDVAEYKRLNFHLYMALKKALFKPGAWFKGILIPLCESGTCTLREAIIVGSIITKCSIPVLHSSAAMLKIAEMEYSGANSIFLRLLLDKKYALPYRVLDALVFHFLGFRTEKRELPVLWHQCLLTLVQRYKADLATDQKEALLELLRLQPHPQLSPEIRRELQSAVPRDVEDVPITVE
# B2: sp¦B0I1T2¦MYO1G_HUMAN (protein, UniProt B0I1T2 1-1018, looked up)
# Unconventional myosin-Ig: MEDEEGPEYGKPDFVLLDQVTMEDFMRNLQLRFEKGRIYTYIGEVLVSVNPYQELPLYGPEAIARYQGRELYERPPHLYAVANAAYKAMKHRSRDTCIVISGESGAGKTEASKHIMQYIAAVTNPSQRAEVERVKDVLLKSTCVLEAFGNARTNRNHNSSRFGKYMDINFDFKGDPIGGHIHSYLLEKSRVLKQHVGERNFHAFYQLLRGSEDKQLHELHLERNPAVYNFTHQGAGLNMTVHSALDSDEQSHQAVTEAMRVIGFSPEEVESVHRILAAILHLGNIEFVETEEGGLQKEGLAVAEEALVDHVAELTATPRDLVLRSLLARTVASGGRELIEKGHTAAEASYARDACAKAVYQRLFEWVVNRINSVMEPRGRDPRRDGKDTVIGVLDIYGFEVFPVNSFEQFCINYCNEKLQQLFIQLILKQEQEEYEREGITWQSVEYFNNATIVDLVERPHRGILAVLDEACSSAGTITDRIFLQTLDMHHRHHLHYTSRQLCPTDKTMEFGRDFRIKHYAGDVTYSVEGFIDKNRDFLFQDFKRLLYNSTDPTLRAMWPDGQQDITEVTKRPLTAGTLFKNSMVALVENLASKEPFYVRCIKPNEDKVAGKLDENHCRHQVAYLGLLENVRVRRAGFASRQPYSRFLLRYKMTCEYTWPNHLLGSDKAAVSALLEQHGLQGDVAFGHSKLFIRSPRTLVTLEQSRARLIPIIVLLLQKAWRGTLARWRCRRLRAIYTIMRWFRRHKVRAHLAELQRRFQAARQPPLYGRDLVWPLPPAVLQPFQDTCHALFCRWRARQLVKNIPPSDMPQIKAKVAAMGALQGLRQDWGCRRAWARDYLSSATDNPTASSLFAQRLKTLQDKDGFGAVLFSSHVRKVNRFHKIRNRALLLTDQHLYKLDPDRQYRVMRAVPLEAVTGLSVTSGGDQLVVLHARGQDDLVVCLHRSRPPLDNRVGELVGVLAAHCQGEGRTLEVRVSDCIPLSHRGVRRLISVEPRPEQPEPDFRCARGSFTLLWPSR
# B3: sp¦P55060¦XPO2_HUMAN (protein, UniProt P55060 1-971, looked up)
# Exportin-2: MELSDANLQTLTEYLKKTLDPDPAIRRPAEKFLESVEGNQNYPLLLLTLLEKSQDNVIKVCASVTFKNYIKRNWRIVEDEPNKICEADRVAIKANIVHLMLSSPEQIQKQLSDAISIIGREDFPQKWPDLLTEMVNRFQSGDFHVINGVLRTAHSLFKRYRHEFKSNELWTEIKLVLDAFALPLTNLFKATIELCSTHANDASALRILFSSLILISKLFYSLNFQDLPEFFEDNMETWMNNFHTLLTLDNKLLQTDDEEEAGLLELLKSQICDNAALYAQKYDEEFQRYLPRFVTAIWNLLVTTGQEVKYDLLVSNAIQFLASVCERPHYKNLFEDQNTLTSICEKVIVPNMEFRAADEEAFEDNSEEYIRRDLEGSDIDTRRRAACDLVRGLCKFFEGPVTGIFSGYVNSMLQEYAKNPSVNWKHKDAAIYLVTSLASKAQTQKHGITQANELVNLTEFFVNHILPDLKSANVNEFPVLKADGIKYIMIFRNQVPKEHLLVSIPLLINHLQAESIVVHTYAAHALERLFTMRGPNNATLFTAAEIAPFVEILLTNLFKALTLPGSSENEYIMKAIMRSFSLLQEAIIPYIPTLITQLTQKLLAVSKNPSKPHFNHYMFEAICLSIRITCKANPAAVVNFEEALFLVFTEILQNDVQEFIPYVFQVMSLLLETHKNDIPSSYMALFPHLLQPVLWERTGNIPALVRLLQAFLERGSNTIASAAADKIPGLLGVFQKLIASKANDHQGFYLLNSIIEHMPPESVDQYRKQIFILLFQRLQNSKTTKFIKSFLVFINLYCIKYGALALQEIFDGIQPKMFGMVLEKIIIPEIQKVSGNVEKKICAVGITKLLTECPPMMDTEYTKLWTPLLQSLIGLFELPEDDTIPDEEHFIDIEDTPGYQTAFSQLAFAGKKEHDPVGQMVNNPKIHLAQSLHKLSTACPGRVPSMVSTSLNAEALQYLQGYLQAASVTLL
# B4: sp¦Q13451¦FKBP5_HUMAN (protein, UniProt Q13451 1-457, looked up)
# Peptidyl-prolyl cis-trans …: MTTDEGAKNNEESPTATVAEQGEDITSKKDRGVLKIVKRVGNGEETPMIGDKVYVHYKGKLSNGKKFDSSHDRNEPFVFSLGKGQVIKAWDIGVATMKKGEICHLLCKPEYAYGSAGSLPKIPSNATLFFEIELLDFKGEDLFEDGGIIRRTKRKGEGYSNPNEGATVEIHLEGRCGGRMFDCRDVAFTVGEGEDHDIPIGIDKALEKMQREEQCILYLGPRYGFGEAGKPKFGIEPNAELIYEVTLKSFEKAKESWEMDTKEKLEQAAIVKEKGTVYFKGGKYMQAVIQYGKIVSWLEMEYGLSEKESKASESFLLAAFLNLAMCYLKLREYTKAVECCDKALGLDSANEKGLYRRGEAQLLMNEFESAKGDFEKVLEVNPQNKAARLQISMCQKKAKEHNERDRRIYANMFKKFAEQDAKEEANKAMGKKTSEGVTNEKGTDSQAMEEEKPEGHV
# B5: sp¦Q04837¦SSBP_HUMAN (protein, UniProt Q04837 17-148, looked up)
# Single-stranded DNA-binding …: ESETTTSLVLERSLNRVHLLGRVGQDPVLRQVEGKNPVTIFSLATNEMWRSGDSEVYQLGDVSQKTTWHRISVFRPGLRDVAYQYVKKGSRIYLEGKIDYGEYMDKNNVRRQATTIIADNIIFLSDQTKEKE
# B6: sp¦Q6IBS0¦TWF2_HUMAN (protein, UniProt Q6IBS0 2-349, looked up)
# Twinfilin-2: AHQTGIHATEELKEFFAKARAGSVRLIKVVIEDEQLVLGASQEPVGRWDQDYDRAVLPLLDAQQPCYLLYRLDSQNAQGFEWLFLAWSPDNSPVRLKMLYAATRATVKKEFGGGHIKDELFGTVKDDLSFAGYQKHLSSCAAPAPLTSAERELQQIRINEVKTEISVESKHQTLQGLAFPLQPEAQRALQQLKQKMVNYIQMKLDLERETIELVHTEPTDVAQLPSRVPRDAARYHFFLYKHTHEGDPLESVVFIYSMPGYKCSIKERMLYSSCKSRLLDSVEQDFHLEIAKKIEIGDGAELTAEFLYDEVHPKQHAFKQAFAKPKGPGGKRGHKRLIRGPGENGDDS
# B7: sp¦P56192¦SYMC_HUMAN (protein, UniProt P56192 1-900, looked up)
# Methionine--tRNA ligase, …: MRLFVSDGVPGCLPVLAAAGRARGRAEVLISTVGPEDCVVPFLTRPKVPVLQLDSGNYLFSTSAICRYFFLLSGWEQDDLTNQWLEWEATELQPALSAALYYLVVQGKKGEDVLGSVRRALTHIDHSLSRQNCPFLAGETESLADIVLWGALYPLLQDPAYLPEELSALHSWFQTLSTQEPCQRAAETVLKQQGVLALRPYLQKQPQPSPAEGRAVTNEPEEEELATLSEEEIAMAVTAWEKGLESLPPLRPQQNPVLPVAGERNVLITSALPYVNNVPHLGNIIGCVLSADVFARYSRLRQWNTLYLCGTDEYGTATETKALEEGLTPQEICDKYHIIHADIYRWFNISFDIFGRTTTPQQTKITQDIFQQLLKRGFVLQDTVEQLRCEHCARFLADRFVEGVCPFCGYEEARGDQCDKCGKLINAVELKKPQCKVCRSCPVVQSSQHLFLDLPKLEKRLEEWLGRTLPGSDWTPNAQFITRSWLRDGLKPRCITRDLKWGTPVPLEGFEDKVFYVWFDATIGYLSITANYTDQWERWWKNPEQVDLYQFMAKDNVPFHSLVFPCSALGAEDNYTLVSHLIATEYLNYEDGKFSKSRGVGVFGDMAQDTGIPADIWRFYLLYIRPEGQDSAFSWTDLLLKNNSELLNNLGNFINRAGMFVSKFFGGYVPEMVLTPDDQRLLAHVTLELQHYHQLLEKVRIRDALRSILTISRHGNQYIQVNEPWKRIKGSEADRQRAGTVTGLAVNIAALLSVMLQPYMPTVSATIQAQLQLPPPACSILLTNFLCTLPAGHQIGTVSPLFQKLENDQIESLRQRFGGGQAKTSPKPAVVETVTTAKPQQIQALMDEVTKQGNIVRELKAQKADKNEVAAEVAKLLDLKKQLAVAEGKPPEAPKGKKKK
# B8: sp¦P21912¦SDHB_HUMAN (protein, UniProt P21912 29-280, looked up)
# Succinate dehydrogenase …: AQTAAATAPRIKKFAIYRWDPDKAGDKPHMQTYEVDLNKCGPMVLDALIKIKNEVDSTLTFRRSCREGICGSCAMNINGGNTLACTRRIDTNLNKVSKIYPLPHMYVIKDLVPDLSNFYAQYKSIEPYLKKKDESQEGKQQYLQSIEEREKLDGLYECILCACCSTSCPSYWWNGDKYLGPAVLMQAYRWMIDSRDDFTEERLAKLQDPFSLYRCHTIMNCTRTCPKGLNPGKAIAEIKKMMATYKEKKASV
# B9: sp¦P34897¦GLYM_HUMAN (protein, UniProt P34897 30-504, looked up)
# Serine …: NAAQTQTGEANRGWTGQESLSDSDPEMWELLQREKDRQCRGLELIASENFCSRAALEALGSCLNNKYSEGYPGKRYYGGAEVVDEIELLCQRRALEAFDLDPAQWGVNVQPYSGSPANLAVYTALLQPHDRIMGLDLPDGGHLTHGYMSDVKRISATSIFFESMPYKLNPKTGLIDYNQLALTARLFRPRLIIAGTSAYARLIDYARMREVCDEVKAHLLADMAHISGLVAAKVIPSPFKHADIVTTTTHKTLRGARSGLIFYRKGVKAVDPKTGREIPYTFEDRINFAVFPSLQGGPHNHAIAAVAVALKQACTPMFREYSLQVLKNARAMADALLERGYSLVSGGTDNHLVLVDLRPKGLDGARAERVLELVSITANKNTCPGDRSAITPGGLRLGAPALTSRQFREDDFRRVVDFIDEGVNIGLEVKSKTAKLQDFKSFLLKDSETSQRLANLRQRVEQFARAFPMPGFDEH
# B10: sp¦Q96I99¦SUCB2_HUMAN (protein, UniProt Q96I99 38-432, looked up)
# Succinate--CoA ligase …: LNLQEYQSKKLMSDNGVRVQRFFVADTANEALEAAKRLNAKEIVLKAQILAGGRGKGVFNSGLKGGVHLTKDPNVVGQLAKQMIGYNLATKQTPKEGVKVNKVMVAEALDISRETYLAILMDRSCNGPVLVGSPQGGVDIEEVAASNPELIFKEQIDIFEGIKDSQAQRMAENLGFVGPLKSQAADQITKLYNLFLKIDATQVEVNPFGETPEGQVVCFDAKINFDDNAEFRQKDIFAMDDKSENEPIENEAAKYDLKYIGLDGNIACFVNGAGLAMATCDIIFLNGGKPANFLDLGGGVKEAQVYQAFKLLTADPKVEAILVNIFGGIVNCAIIANGITKACRELELKVPLVVRLEGTNVQEAQKILNNSGLPITSAIDLEDAAKKAVASVAKK
# Test system: human HL60 cells
# Assay: SWATH-MS proteomics, differential protein representation, akirin2 KO vs WT HL60 cells
# Assay type: cell-based
# Settings: akirin2 KO vs WT HL60 cells; sheet "Under-represented in KO"
# How it was run: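 First, proteins from wild-type and knockout cells are digested with trypsin by FASP. Next, pooled IDA runs generate a reference ion library. Then six samples of 5 µg each are acquired by data-independent SWATH, and protein areas are normalized to the summed area of all detected proteins.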
Molecule,Fold Change,Log (Fold Change)
B1,0.6611,-0.1797
B2,0.6785,-0.1685
B3,0.6591,-0.1811
B4,0.6681,-0.1751
B5,0.6781,-0.1687
B6,0.6717,-0.1728
B7,0.6651,-0.1771
B8,0.6622,-0.179
B9,0.6722,-0.1725
B10,0.6651,-0.1771
